Source: the DeepSol protein solubility set

assay: soluble on expression in E. coli; label from the status in PepcDB or PDB records

Row | Sequence | soluble on expression in E. coli
1 | MSLEKQKLIKLIDVAAGRKKADLVLKNAKIVDVFQAKILTGDIAISDGYIAGIGGSYQGVVECNYTGKYVAPGFIEAHIHIESSYVSPEEFSRVFIPRGTTTILADPHEIVNVAGLKGLDYMVNAAKNAKMDIRYMMPPCVPATNFETSGADLYADDMEDALKTGEVDGLAELMNFPGVINADDKMIDEILMAKKYGARIDGHAPQVVGKDLNAYIAAGPANDHECSTLEEAEERLARGMYLLLREGSVTQDLRKLLPIVNTANSRRCLLSGDDVQAKTAINKGHLDNSIRICIDEGLNPITAIQMATLNPAEYCGLNDRGAIAPGRRADMVVFESLEDFAVEETYILGEKLSQGNEYLGEVNYYPIDSVESSMHVKDFTREKLQLHLNSDKVRAIGVVPGEVLTTEEHVTVKRDGDGNFVYNDQEDVTKIVVVERHHNTGNVNVNLLSGYGIKAGAIAISIGHDSHNIIATGTNDDDIFMAVNELIKQEGGAVVVKDEKVISRMELKIAGLMCNLPAEKMIAQQDALDEAVHEELGVPDNVNPVMTLSFMPLAVIPKLKITDKGLVDVEKNAFVSNELDEGHHHHHH | soluble
2 | AIATGVYADAVLVSVTVGDTVTLHTAGVKNLQPADVKWYFNDIRIAQLDGDLRFNCTDIQCNDRTEIFIDRLRLDRKTGALTIVNITNTHSGVYQLVVIGGGGTIFNVTVHDDPATHYNQVKKNQGESVTFNPGVRRDLIVVLKCLLNNTLIAEISVNQSQICADVQCKERFTDRLKLDNESASLTITNTNITDSGNYTSVILISSDRRFSITREKRFSLTVTSLSSSQPSGGAIAGIVVMLLLLL | soluble
3 | MLEFETNIDGLASIKVIGVGGGGNNAVNRMIENEVQGVEYIAVNTDAQALNLSKAEVKMQIGAKLTRGLGAGANPEVGKKAAEESKEQIEEALKGADMVFVTAGMGGGTGTGAAPVIAQIAKDLGALTVGVVTRPFTFEGRKRQLQAAGGISAMKEAVDTLIVIPNDRILEIVDKNTPMLEAFREADNVLRQGVQGISDLIATPGLINLDFADVKTIMSNKGSALMGIGIATGENRAAEAAKKAISSPLLEAAIDGAQGVLMNITGGTNLSLYEVQEAADIVASASDQDVNMIFGSVINENLKDEIVVTVIATGFIEQEKDVTKPQRPSLNQSIKTHNQSVPKRDAKREEPQQQNTVSRHTSQPADDTLDIPTFLRNRNKRG | soluble
4 | MGSDKIHHHHHHVYRKIKAQDLRPGMYVVDVGLSWLENPYLYMTEGVLADEEAVGRVLSEGYEEAVIDLRRCLEGSVPDDLAELEPLTDAEHVSRAVSATADSPVSAVAQRVPVAQEMLAAKAIYSESITFVRGFMEGAREGRPVDLKAAEPLVEDIIQSVSRNAGALIGFAKLRAYDLYTYTHSLNVSLLAVAFGKYLGLDTVALRQIGLAGLFHDLGKALIPDFILNCPGRLTPEEFSVMKRHPVLGRDVLPGGGRIPDMVLEGMLQHHEKFNGTGYPAGLKGDAISEAGRIIAVVDVYDALTSKRPYKNAMLPNKALSILYSMAGEEFYPGYVEHFIKCIGIYPVGQIVRLNTGQVGVVSATDPAVPLRPEVIVVRDPLGRPAPPRLIRLADVISVSVTETLEAAHAGIDAARVLQDGAAS | not soluble
5 | KYVDGFLIPIAKDKVNKYREIAQKSSQIWKDLGALEYYECIGDDLDIEELVSFKKVVNASEEETVIFSWIVYESKEQRDKVNEAVMNDPRMKEMMETSEYDLFDYRRMSYGGFKTLVSL | not soluble
6 | MATTKRVLYVGGLAEEVDDKVLHAAFIPFGDITDIQIPLDYETEKHRGFAFVEFELAEDAAAAIDNMNESELFGRTIRVNLAKPMRIKE | soluble
7 | MPPKTSEVARKLERLGFKPLPRRGKGGHRVYVHPDGRKVVLPLHSGEIPWGLFKTVLKQAGITEEEFRRA | soluble
8 | MGSDKIHHHHHHMASISIRCPSCSATEGVVRNGKSTAGHQRYLCSHCRKTWQLQFTYTASQPGTHQKIIDMAMNGVGCRASARIMGVGLYTVLRHLKNSAESVTSRIQPGSDVIVCAEMDEHWGYVGAKSRQRWLFYAYDRIRRTVVAHVFGERTLATLERLLSLLSAFEVVVWMTDGCPLYESRLKGKLHVISKRYTQRIERHNLNLRQHLARLVRKSLSFSKSVELHDKAIGHYLNIKHYQ | not soluble
9 | MKNFMKYLEVSKEVKEALENNKPVVALESTIISHGMPFPQNYETALKVEKVIREAGAIPATIAILDGKLKVGLSAEEIEFLGKEGSKIIKVSRRDLPYIVANKLNGATTVATTMIVAEMAGVKVFATGGIGGVHRGAETTMDISADLEELSNTNVAVICAGAKSILDLGLTLEYLETHGVPVLGYQTKKLPAFFTRESEFDLDYKIDTPKELADIITAKWEMGLNGGVVIANPIPVEYSMDYDEISKSIEEAVKEAEAKGIKGKESTPFLLAKIKEITKGKSLEANIQLVYNNAKLASEIAGNMK | not soluble
10 | MPLVQMKDILMKANQENYGVGAFSVTNMEMVMGAIKAAEELSSPLILQIAEVRLNHSPIHMIGPLMVAAAKQATVPVAVHFDHGMTFEKIQETLEIGFSSVMFDGSHYPLEENIQKTKEIVELAKQYGATVEAEIGRVGGSEDGSEDIEMLLTSTTEAKRFAEETDVDALAVAIGNAHGMYNGDPNLRLDRLQEINDVVHIPLVLHGGSGISPEDFKQCIQHGVRKINVATATFQNVITAVNNTVLNTPYSDYFTYHQDVIKAAYENVKSHMQIFGSENRA | not soluble
11 | MGSDKIHHHHHHMSVLNAKECVSPITRSVKYHQQSAEIRALQLQSYKMAKMALDNNLKLVKDKKPAVILDLDETVLNTFDYAGYLIKNCIKYTPETWDKFEKEGSLTLIPGALDFLEYANSKGVKIFYISNRTQKNKAFTLKTLKSFKLPQVSEESVLLKEKGKPKAVRRELVAKDYAIVLQVGDTLHDFDAIFAKDAKNSQEQRAKVLQNAQKFGTEWIILPNSLYGTWEDEPIKAWQNKK | not soluble
12 | MAHHHHHHMSGYLKVLSPDGRWETRYIEIDDAKLRIWRTKGDKESSAAVVKELDLKCATLREVSEPNTWAVQPEKAEATYFQADGEERKTEWMDTLRHYNSSSSGSEKVTLRDFEKKFVLGKGSYGKVFMVVKKDTDKWYAMKEMSAEKMRQAEIKAPFAERIILEEIDHPFIVHLHYSFQEQGNLYMILDLLAGGELFTYIEQHAPLDEEVVKFYAAEVALALGYLHSRNIIYRDLKPENVVFDRDGHACLTDFGLAKANVHEPNAVTYCGTNEYLAPELLKGVPHGKAVDWWSLGLMMCEMLFNDLPFYDENPMQMQMKILTEDVAFPPHIQITEETKDLIRCLLNKNPERRLQTLEAFKAHKCFSNLDFCLLEARKLKAPITPDPNPAHNFAKEFTSEVIVQNESPSQAVVTLAGYTYDRDLSEQEKSPSHSPTIAEELRQRRASKKRPTNGSDAASPPVTGENRTSNSSPAGVPMKQAAPGPVKKVEHHIPAKVAPQAARKKLTGNKSFDKPTK | soluble
13 | MSLEKELVTWFNILNKPPLEYLKGVEDFYNAYGEVLEMQDRHAHLLSYKDDDYLHVILCASILHHYSDQDIETLKELLVKFYYQDWVAGQTKTTRSQTCCNIINVLKEKKSMDYITSIVKEYLDDKNITQRFKDNLKDSNLYTKFYFINGKTAKKNSWVKPILILVEYFMSDNANPACIKMDDDLHVERILPQNPDPSSQWMKDFSEEERGLYTHSLANLTLLGGKKNTKALSQALNQDFKEKKEIYMGKTIMLDNKKTFRVMTCYDMTKNDVCRYTEWTPTSLEKRKESEGHHHHHH | not soluble
14 | MKEERRRLLAKVAYLHYVQGKSQTLISKEMNIYRTTVCRMLAKAKEEGIVRIEIADYDADLFALEEYVRQQYGLEKLDLVPNQVEDTPMDTLTNVAKTAAEVFRHVVKDGDKIGLSWGATLSCLMDELNPKAMKDVFIYPLAGGPSHINAKYHVNTLVYRLARIFHGNSAFMNAMVIQEDKHLAKGILQSKYFNDILTSWDQLDLALVGIGGEPNSLEQSQWRDLLTSSDHDQLKYEKAVGEVCCRFFDQAGQPVYTGLQDRTIGISLEQLRRVPKTMAVATGKHKAKAILAALKAGFINYLVTDKETMLAVLALDEDIDLNNVLL | not soluble
15 | MTMETVESQHDGSITASLTESKSAHVQTQTGQNSIPALAQVAAIAETDESAESGGVIDSHKRREILSRRPSYRKILNELSSDVPGVPKIEEERSEEEGTPPSIATMAVPTSIYQTSTGQYIAIAQGGTIQISNPGSDGVQGLQALTMTNSGAPPPGATIVQYAAQSADGTQQFFVPGSQVVVQAATGDMPTYQIRAPTAALPQGVVMAASPGSLHSPQQLAEEATRKRELRLMKNREAAKECRRRKKE | soluble
16 | MSLKRVSEMKFCFCGEKKDSRVKPLRVAIIGAGPAGLSAACSLACDGFDVHVYDKMPEPGGMVAFGIPEWRIPISKVRQAVKEIEELGVVFHMRTKVVYDSPKELGDEFAERFVSLEKLMKEYDAILIATGAWRPRILDIPGKELKGVENALQLLLRINLARIGYLPQTKMPSFEGKRVVVIGAGYTAVDVAKEAKLLGAKSVTIAYRRSLQDSYAKNEFKKLIKEGVKFLEYVTPVRIFGDENVREVEFAKTKVVRGSVITTEEKRTIPADVIIFAIGQIPTNPIKEVLCSNEDILKNAGIFFAGDVISPRNIGTAIREGRKVAEEIKAWLTEHAFLNIRLSYPVSLRDISKSATEGHHHHHH | soluble
17 | MPKVKTNRVKYPEGWELIEPTLRELDAKMREAETDSHDGKRKCETLWPIFKVSHQRSRYVYDLYYRREEISKELYEFCLDQGYADRSLIAKWKKSGYERLCCLRCIQPRDHNYGTTCVCRVPKHLREEKVVECVHCGCQGCASGD | not soluble
18 | MAHHHHHHMRLTASRALLQQAGEMCTALHWMCRIAARVPESGLSGSQLQALLDDEFPSFSPSEVGAVTLKEAVLRFPELLSVEDGSQLQAKWRVRPTHAHKTQEQRASPSSKPTETYTLPMMKLQQFCTKRARMHRNTYMPLEYVLSKADITDVNIVGEVLHNPDAALDVQAGVRIKPKRTPRAVVAFVDGDALPAVAVDEMCNELNVLKESSIVTIVRQPGSHELSAVDIVCPDVIPTYLSIEKHAHELRLRRPNVRHDVVYMCAASQFNIYADRVALLNDFPDADVYVCCPSMIALVKPKKVIPFE | soluble
19 | MELRVGNRYRLGRKIGSGSFGDIYLGTDIAAGEEVAIKLECVKTKHPQLHIESKIYKMMQGGVGIPTIRWCGAEGDYNVMVMELLGPSLEDLFNFCSRKFSLKTVLLLADQMISRIEYIHSKNFIHRDVKPDNFLMGLGKKGNLVYIIDFGLAKKYRDARTHQHIPYRENKNLTGTARYASINTHLGIEQSRRDDLESLGYVLMYFNLGSLPWQGLKAATKRQKYERISEKKMSTPIEVLCKGYPSEFATYLNFCRSLRFDDKPDYSYLRQLFRNLFHRQGFSYDYVFDWNMLKFGASRAADDAERERRDREERLRHSRNPATRGLPSTASGRLRGTQEVAPPTPLTPTSHTANTSPRPVSGMERERKVSMRLHRGAPVNISSSDLTGRQDTSRMSTSQIPGRVASSGLQSVVHR | not soluble
20 | MGSDKIHHHHHHNRASAQTVSEKDATSTQAPVFLTYTVTKENETVEIVGQVTADTKKVTSKVSGDVLEIYVEEGDVVQVGQKIAKIDDTDYQISYLSALNSYKTSPTEINRLNLEKAKENLENTTVVSPVSGVVQAVNVDVGDRVSVGTSIVTIVETDTLRVEGSISEYDLKNVKEGMKAVFTFEQLGLTLTGKVKRISPVAETSGGVTVIPVEFSFDQTPPSLVIPGLTCDVEIIIKEATSSFFIPKEAVRQDQNGYYVMKQTPQGPQKVYVELGEELNDKIEIKKGVSEGDVLLLIPSQQEIQRLRTRQGLPMFGPGGGRAR | not soluble
21 | MVDQQDTFAEYFKNWYIFYKKPKVSKVTLNRYQYTYNVINEYFGNKLLKDITRANYQKFIVKYGQNHSPNTMKMINNCIKACVKNAVYDEEIKKDFTYNIELISNRDNVVQLEHHHHHH | soluble
